“And” between values parts separate entries of the source, which are not always exact repeats. Identical values can stand only once.
B1: E2E8: dGAE (391E) specific clone, Table 9; SEQ ID NO: 248 (protein)
scFv: QVQLQESGPSLVKPSQTLSLTCTVSGFSLTDRGVAWVRQAPGKALEWVGTMRSGGTIDYNPALKSRLSITRDTSKSQVFLSLSSVTTEDMAMYYCARGYLSGDRYAWGRGLLVTVSSEGKSSGASGESKVDDQAVLTQPSSVSKSLGQSVSIACSGSRSDIGYGNYVSWFQQIPGSAPKLLIYDTNTRASGVPDRFSGARSGNTATLTINSLQAEDEADYYCANIDSSRSHLFGSGTRLTVLG
modifications: E2E8 amino acid sequence
B2: E2E8 mAb: E2E8 reformatted; heavy chain SEQ ID NO: 493, light chain 494 (antibody)
heavy: QVQLQESGPSLVKPSQTLSLTCTVSGFSLTDRGVAWVRQAPGKALEWVGTMRSGGTIDYNPALKSRLSITRDTSKSQVFLSLSSVTTEDMAMYYCARGYLSGDRYAWGRGLLVTVSSAKTTAPSVYPLAPVCGDTTGSSVTLGCLVKGYFPEPVTLTWNSGSLSSGVHTFPAVLQSDLYTLSSSVTVTSSTWPSQSITCNVAHPASSTKVDKKIEPRGPTIKPCPPCKCPAPNLLGGPSVFIFPPKIKDVLMISLSPIVTCVVVDVSEDDPDVQISWFVNNVEVHTAQTQTHREDYNSTLRVVSALPIQHQDWMSGKEFKCKVNNKDLPAPIERTISKPKGSVRAPQVYVLPPPEEEMTKKQVTLTCMVTDFMPEDIYVEWTNNGKTELNYKNTEPVLDSDGSYFMYSKLRVEKKNWVERNSYSCSVVHEGLHNHHTTKSFSRTPGK
light: QAVLTQPSSVSKSLGQSVSIACSGSRSDIGYGNYVSWFQQIPGSAPKLLIYDTNTRASGVPDRFSGARSGNTATLTINSLQAEDEADYYCANIDSSRSHLFGSGTRLTVLGGQPKSSPSVTLFPPSSEELETNKATLVCTITDFYPGVVTVDWKVDGTPVTQGMETTQPSKQSNNKYMASSYLTLTARAWERHSSYSCQVTHEGHTVEKSLSRADCS
modifications: E2E8 mAB Heavy Chain; E2E8 mAB Light Chain
B3: CB7: human-specific N-terminal anti-tau clone, Table 10; SEQ ID NO: 364 (protein)
scFv: QVQLQESGPSLVKPSQTLSLTCTVSGFSLTNYRVGWVRQAPGKALEWVSNIRSGGTTWYNPALKSRLSITADTSKSQVSLSLSSVTTEDTAVYYCARDSSGDLYAYDYWGPGLLVTVSSEGKSSGASGESKVDDQAVLTQPSSVSRSLGQSVSMTCSGSSSNVGYGNYMAWFQQVPGSAPKLLIYGATSRASGVPDRFSGSRSGNTATLTISSLQAEDEADYYCASYDSTSGGVFGSGTRLTVLG
modifications: CB7 amino acid sequence

How the values were obtained:
[1] = test system: hT40, dGA, dGAE and truncated tau fragments; assay: Binding ELISA / epitope mapping of anti-tau scAbs with truncated tau proteins and 13mer peptides; parameters: species or system human; details: for Tau proteins/fragments with positive scAb reactivity: binding ELISA; for Detection scAb (Epitope): Table 28 (LoD table)
How it was run: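 Plates coated with 1 μg/ml tau protein, or 5 μg/ml streptavidin then 1 μg/ml biotinylated 13mer peptide; blocked with 2% MPBS. scAbs added at a starting concentration and double-diluted. Bound scAb detected with HRP anti-human C kappa and read as absorbance.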

[2] = target: T1, hT40 (T441, SEQ ID NO: 1) (Homo sapiens, UniProt P10636); assay: Biacore X100 SPR kinetics of scAbs for hT40; assay type: binding
T1 construct: Full length tau (hT40)
How it was run: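 Captured scAb on anti-HuCk CM5 surface (flow cell 1 as reference) in HBS-EP+, capture set for theoretical RMax 100 RU; hT40 injected multi-cycle (0.15625–100 nM) or single-cycle (6.25–100 nM), 120 s association, 420 s dissociation, glycine pH 2.0 regeneration. Kinetics and affinity from 1:1 binding model fit.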

dGAE (SEQ ID NO: 4) = dGAE (SEQ ID NO: 4) (Homo sapiens, UniProt P10636); assay: Biacore X100 SPR kinetics of scAbs for dGAE; assay type: binding; details: Table 24, scAb, dGAE analyte
Method: Surface plasmon resonance (SPR) is widely regarded as the gold standard for real time measurement of protein-protein interactions such as antibody binding. All SPR experiments were carried out using a Biacore X100 machine and HBS EP+ running buffer (GE Healthcare). A ‘capture’ method was followed for affinity measurements, where an anti-human constant kappa chain (HuCk) antibody was conjugated to the surface of a CM5 sensor chip using an amine coupling kit and scAb molecules were immobilised via their HuCk domain. Amine coupling is a very common approach for immobilising the ligand to the chip surface. The chip surface has a dextran matrix derivatised with carboxyl groups, which after activation with N-hydroxysuccinimide (NHS) and 1-ethyl-3-(3-dimethylaminopropyl) carbodiimide (EDC), form reactive succinimide esters which allows the covalent capturing of the ligand via any available primary amine groups (e.g. Lysine) on the ligand (in this case anti-HuCk antibody). The capture antibody was diluted 1/100 in 10 mM Sodium acetate buffer pH 5.0 and passed over the activated chip surface for a period of at least 420 s. Final ligand immobilisation levels over 12,000 RU were deemed to be satisfactory.
Following immobilisation, the level of each scAb to be captured was identified using the standard SPR equation with a theoretical RMax of 100 RU. Analyte MW refers to the molecular weight of hT40 or dGA/dGAE molecules, while ligand MW refers to the molecular weight of the scAbs tested. RL is the desired capture level and S refers to the stoichiometric ratio:
The scAb to be tested was added only to flow cell 2 so that flow cell 1 could act as a control to subtract any interaction with the analyte and the chip surface. Both single and multi-cycle runs were utilised using wizards developed in the Biacore X100 control software which are both accepted methods of kinetic analysis (Karlsson, R., et al. Analyzing a kinetic titration series using affinity biosensors (2006) Analytical Biochemistry 349:136-47). The multi-cycle protocol was as follows-Three start-up cycles composed of an initial capture, to the desired level, of the scAb to be tested was performed followed by a 30 s injection of glycine buffer pH 2.0 after each cycle to regenerate the chip surface. The regeneration step removed any captured scAb whilst leaving the capture antibody intact and able to repeat the capture for the next cycle. […]
The single cycle kinetics protocol was similar and utilised the same level of scAb capture. […] Binding responses were analysed in Biacore X100 evaluation software and data fitted to a 1:1 binding model to obtain kinetic and affinity characterisation.

[3] = test system: 13 aa tau peptides of hT40; assay: Alanine scanning mutagenesis (ASM) peptide ELISA; assay type: binding, human; details: alanine substituted peptides; numbering SEQ ID NO: 1
Method: Briefly, 5 μg/ml streptavidin (Thermo Fisher) was adsorbed to Nunc 96-well MaxiSorp plates and following incubation at 37° C. for 1 h, the plates were washed as normal and blocked with 2% MPBS. N-terminally biotinylated peptides (Prolmmune Ltd) were added to the plates and incubated for 1 h at 37° C. Subsequently, test scAbs at starting concentrations of 100-500 nM was added and double diluted across the plate for each peptide and incubated for 1 h at 37° C. Rest of the ELISA was conducted as described above and the plates were read at absorbance 450 nm. Immunoreactivity of the scAb of interest was quantified as the % of scAb was bound for each peptide at a chosen concentration (FIG. 15-20).

aggregated dGAE = aggregated dGAE (Homo sapiens, UniProt P10636); assay: Capture ELISA ranking mAbs for capture of dGAE aggregates; assay type: binding; details: capture mAb 1 μg/ml; 800 nM aggregated dGAE
Method: The aggregation cascade of natively unfolded tau into insoluble filaments is a defining pathological feature of AD. Therefore, it is logical to target aggregated tau filaments for both therapeutic and diagnostic purposes. The following experiment was performed to assess the ability of our dGA mAb panel to bind aggregated dGAE using a capture ELISA method. Aggregates were prepared by incubating 100 μM dGAE and 10 mM dTT for 24 h at 37° C. with shaking at 700 RPM. The following day, dGAE aggregates were centrifuged at 17,000×g for 20 min and the supernatant was removed. The remaining pellet was washed with 10 mM phosphate buffer and centrifuged as above. Washing was repeated a further two times to remove any remaining dGAE monomer. The dGAE pellet was resuspended in 100 μl of 10 mM phosphate buffer. (Using a separate capture ELISA based quantification, we have worked out the efficiency of our dGAE aggregation as 80%)
Following washing, 800 nM aggregated dGAE was added to the designated wells, double diluted across the plate and incubated for 1 h at RT. The plate was washed again and 1 μg/ml S1G2 scAb was added as detection antibody and incubated for 1 h at RT. To the row where S1G2 mAb was used for capture, […] s1D12 scAb was added as […] instead of S1G2. The assay was developed using HRP labelled HuCK as described previously.

htau40 = target: T2, htau40 (Homo sapiens, UniProt P10636); assay: Biacore X100 SPR kinetics of anti-tau mAbs on immobilised htau40; assay type: binding; details: Table 27; mAb format, immobilised htau40
T2 construct: Full length tau (hT40)
How it was run: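 Htau40 amine-coupled to CM5 chip (~250 RU, pH 4.0 immobilisation), reference flow cell subtracted; mAb injected at 0.78–25 nM in HBS-EP+, 120 s association, 600 s dissociation, glycine pH 1.5 regeneration. Kinetic and affinity constants from 1:1 binding model fit.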

[4] = test system: tau fragments in plasma of WT, L1 and L66 mice; assay: Capture ELISA on transgenic mouse plasma; details: Line66 transgenic model
Method: Plasma samples from WT, L1, L66+/− and L66+/+ of various ages (1.5-9 months) were taken as described. Mice were terminally anaesthetized using an overdose of sodium pentobarbital and blood was collected through cardiac puncture through a Plastipak syringe pre-rinsed with heparinised saline heparin (10 U/ml) (Heparin sodium salt; Sigma-Aldrich) and transferred into a plastic vial containing lithium heparin anticoagulant (Sarstedt Ltd.) Blood samples, kept on ice for no more than 30 minutes, were centrifuged to obtain plasma at 2000× g for 5 minutes at 6° C. Plasma samples were stored at −20° C.
For mouse plasma capture ELISA, 100 μL capture mAb was coated to the bottom of a black nunc 96 well ‘maxisorp’ plate at 2.5 μg/ml and incubated for 1 hour at 37° C. After washing and blocking as normal, several known standard solutions were set up in triplicate starting at 20 ng/ml of the desired protein before double diluted in the remaining wells. Mouse samples were added to wells in duplicate with a blank in between each sample group. Line1 plasma was diluted 1:10 before addition to plate to account for its high concentration while other samples were diluted 1:2 to account for potential matrix effects. […] The ELISA was developed using SuperSignal ELISA Femto Substrate (Thermo Scientific) and total luminescence was read on Clariostar Plus plate reader (BMG Labtech). […]

[5] = Table 26 summary, top scAbs, residues of hT40
[6] = Table 23, scAb captured, T441 (hT40) analyte, 1:1 model

T1 sequence (P10636 1-441 isoform P10636-8): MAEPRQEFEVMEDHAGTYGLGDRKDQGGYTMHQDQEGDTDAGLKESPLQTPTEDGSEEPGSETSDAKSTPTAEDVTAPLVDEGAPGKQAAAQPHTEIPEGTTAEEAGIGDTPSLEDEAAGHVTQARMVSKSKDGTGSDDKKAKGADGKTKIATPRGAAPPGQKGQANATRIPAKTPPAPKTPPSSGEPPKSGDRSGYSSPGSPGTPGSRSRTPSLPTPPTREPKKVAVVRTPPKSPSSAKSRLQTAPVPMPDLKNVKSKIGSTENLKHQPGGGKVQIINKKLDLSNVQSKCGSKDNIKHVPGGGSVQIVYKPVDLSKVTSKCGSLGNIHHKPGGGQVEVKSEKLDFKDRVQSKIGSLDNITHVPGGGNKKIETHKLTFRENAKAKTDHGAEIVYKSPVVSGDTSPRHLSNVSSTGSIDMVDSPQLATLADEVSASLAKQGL
T2 sequence (P10636 1-441 isoform P10636-8): as above
Sequence of dGAE (SEQ ID NO: 4) (P10636 614-708): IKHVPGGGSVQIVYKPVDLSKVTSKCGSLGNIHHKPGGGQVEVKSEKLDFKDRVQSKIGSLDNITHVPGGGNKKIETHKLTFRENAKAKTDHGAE
Sequence of aggregated dGAE (P10636 614-708): as above

| Molecule | cross-reactivity using hT40, dGA and dGAE antigens ([1]; ELISA, 'E' group scAbs) | Tau proteins/fragments with positive scAb reactivity ([1]; Table 15, residue numbers of hT40) | Epitope [1, 5] | Detection scAb (Epitope) ([1]; residues of hT40) | T441 binding in SPR (result in words) ([2]; Table 23, scAb format) | hT40 binding (result in words) ([2]; Table 26 summary, scAb format) | ka (dGAE (SEQ ID NO: 4)) [M⁻¹ s⁻¹] | Kd (dGAE (SEQ ID NO: 4); dissociation rate) [s⁻¹] | critical binding residues [3] | ability to capture dGAE aggregates (aggregated dGAE) | ka (htau40) [M⁻¹ s⁻¹] | kd (htau40) [s⁻¹] | Tau proteins/fragments with positive scAb reactivity ([1]; Table 17, 'C' group scAbs) | Shortest region bound on hT40 ([1]; Table 17, 'C' group scAbs, incl. 13mer peptides) | binding region on hT40 ([1]; amino acid residues of hT40) | Epitope ([1]; residue numbers of SEQ ID NO: 1 (hT40), CDR Tables 1-11) | Binding region hT40 ([1]; second Table 26, own antibodies) | ka [2, 6] [M⁻¹ s⁻¹] | kd [2, 6] [s⁻¹] | cross reaction with endogenous mouse tau [4] |
| --- | --- | --- | --- | --- | --- | --- | --- | --- | --- | --- | --- | --- | --- | --- | --- | --- | --- | --- | --- | --- |
| B1 | specific dGAE binding | 297-391 (dGAE) | 391 | E2E8 (E dependant) | No T441 binding | No hT40 binding | 477000 | 0.0001915 | 391 (E) | – | – | – | – | – | – | – | – | – | – | – |
| B2 | – | – | – | – | – | – | – | – | – | most efficient at capturing aggregated dGAE | – | – | – | – | – | – | – | – | – | – |
| B3 | – | – | 13-25 | CB7 (13-25) | – | – | – | – | – | – | 2.568e+06 | 0.009451 | hT40, 1-49, 1-155, 1-319 | 13-25 | 13-25 and 13-26 | 13-25 | (Binding region hT40 13-25) | 133400 | 0.0006936 | does not cross react with endogenous mouse tau protein |

From patent publication US20250355001A1, “METHOD FOR DETECTING A TAU PROTEIN FRAGMENT IN A SAMPLE” (GTINVENT LIMITED, priority 2022, published 2025)
